Values of other authors in PMC4132707.

Columns and labels:
[1] = target: H3K27me3 peptide (Homo sapiens) (UniProt P68431)
[2] = target: H1K26me3 peptide (Homo sapiens) (UniProt P10412)
H1K26me3 peptide (Homo sapiens), sequence (P10412 2-219): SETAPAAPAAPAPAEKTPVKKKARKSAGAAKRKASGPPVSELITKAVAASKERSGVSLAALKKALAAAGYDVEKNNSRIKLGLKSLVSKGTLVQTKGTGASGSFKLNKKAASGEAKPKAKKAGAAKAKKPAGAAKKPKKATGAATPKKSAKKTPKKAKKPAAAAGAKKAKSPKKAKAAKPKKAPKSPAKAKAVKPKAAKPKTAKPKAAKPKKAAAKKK

EED, sequence (O75530 2-441): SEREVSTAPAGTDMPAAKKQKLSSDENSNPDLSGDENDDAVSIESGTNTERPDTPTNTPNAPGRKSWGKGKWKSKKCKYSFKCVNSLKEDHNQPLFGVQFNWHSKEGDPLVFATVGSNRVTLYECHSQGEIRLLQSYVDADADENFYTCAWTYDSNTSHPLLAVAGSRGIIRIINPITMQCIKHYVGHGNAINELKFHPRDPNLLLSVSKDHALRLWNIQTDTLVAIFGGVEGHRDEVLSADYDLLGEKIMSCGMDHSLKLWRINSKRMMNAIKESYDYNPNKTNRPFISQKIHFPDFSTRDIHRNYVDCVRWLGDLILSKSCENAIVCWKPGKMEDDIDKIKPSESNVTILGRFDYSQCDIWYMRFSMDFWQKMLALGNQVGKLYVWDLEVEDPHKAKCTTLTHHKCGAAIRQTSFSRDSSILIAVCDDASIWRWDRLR

Kd [1]: > 20 µM | Kd [2]: > 20 µM
Substance: EED (from UniProt O75530)
